Measurements reported in IntAct's records for PubMed 19850925.

B1: Complement factor H (Homo sapiens), P08603 (parent)
chain: MRLLAKIICLMLWAICVAEDCNELPPRRNTEILTGSWSDQTYPEGTQAIYKCRPGYRSLGNVIMVCRKGEWVALNPLRKCQKRPCGHPGDTPFGTFTLTGGNVFEYGVKAVYTCNEGYQLLGEINYRECDTDGWTNDIPICEVVKCLPVTAPENGKIVSSAMEPDREYHFGQAVRFVCNSGYKIEGDEEMHCSDDGFWSKEKPKCVEISCKSPDVINGSPISQKIIYKENERFQYKCNMGYEYSERGDAVCTESGWRPLPSCEEKSCDNPYIPNGDYSPLRIKHRTGDEITYQCRNGFYPATRGNTAKCTSTGWIPAPRCTLKPCDYPDIKHGGLYHENMRRPYFPVAVGKYYSYYCDEHFETPSGSYWDHIHCTQDGWSPAVPCLRKCYFPYLENGYNQNYGRKFVQGKSIDVACHPGYALPKAQTTVTCMENGWSPTPRCIRVKTCSKSSIDIENGFISESQYTYALKEKAKYQCKLGYVTADGETSGSITCGKDGWSAQPTCIKSCDIPVFMNARTKNDFTWFKLNDTLDYECHDGYESNTGSTTGSIVCGYNGWSDLPICYERECELPKIDVHLVPDRKKDQYKVGEVLKFSCKPGFTIVGPNSVQCYHFGLSPDLPICKEQVQSCGPPPELLNGNVKEKTKEEYGHSEVVEYYCNPRFLMKGPNKIQCVDGEWTTLPVCIVEESTCGDIPELEHGWAQLSSPPYYYGDSVEFNCSESFTMIGHRSITCIHGVWTQLPQCVAIDKLKKCKSSNLIILEEHLKNKKEFDHNSNIRYRCRGKEGWIHTVCINGRWDPEVNCSMAQIQLCPPPPQIPNSHNMTTTLNYRDGEKVSVLCQENYLIQEGEEITCKDGRWQSIPLCVEKIPCSQPPQIEHGTINSSRSSQESYAHGTKLSYTCEGGFRISEENETTCYMGKWSSPPQCEGLPCKSPPEISHGVVAHMSDSYQYGEEVTYKCFEGFGIDGPAIAKCLGEKWSHPPSCIKTDCLSLPSFENAIPMGEKKDVYKAGEQVTYTCATYYKMDGASNVTCINSRWTGRPTCRDTSCVNPPTVQNAYIVSRQMSKYPSGERVRYQCRSPYEMFGDEEVMCLNGNWTEPPQCKDSTGKCGPPPPIDNGDITSFPLSVYAPASSVEYQCQNLYQLEGNKRITCRNGQWSEPPKCLHPCVISREIMENYNIALRWTAKQKLYSRTGESVEFVCKRGYRLSSRSHTLRTTCWDGKLEYPTCAKR
partner: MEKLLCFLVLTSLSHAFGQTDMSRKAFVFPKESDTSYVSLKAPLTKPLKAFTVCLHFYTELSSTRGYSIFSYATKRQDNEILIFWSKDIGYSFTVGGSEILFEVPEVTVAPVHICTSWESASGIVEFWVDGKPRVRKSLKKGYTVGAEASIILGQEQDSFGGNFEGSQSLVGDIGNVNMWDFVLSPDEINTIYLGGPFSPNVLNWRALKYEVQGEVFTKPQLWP

Variants of: B1
Conditions: with crp_human CRP

effect of a mutation on the interaction	Variant
decreasing interaction strength	Y402H
